Reference: the supplement of paper PMC10724198
± gives the standard deviation of the averaged measurements.

Test system: Saccharomyces cerevisiae
Experiment: protein stability index of tFT-peptide fusion (C-terminal peptide) (PSI (0-1 scale)); higher = more stable (slower turnover)
Details: genetic background: wild type; temperature: 30 C
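Note: PSI is a weighted mean of sequencing reads over stability bins, variants kept only with over 10 reads, mCherry proximal and sfGFP distal, peptide attached via GGGS linker.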

Sequence	protein stability index
SGGVWWGRGRVS	0.727 ± 0.058
SGGWGGGDCVGA	0.69 ± 0.014
SGGWLAACYAVY	0.668 ± 0.032
SGKFVGCSFWMG	0.62 ± 0.016
SGLGRPHLRCLD	0.672 ± 0.042
SGLPPYTPPLSF	0.80558 ± 0.00056
SGLRFLSWSVHV	0.6114 ± 0.0051
SGLSPPSRVCGY	0.651 ± 0.068
SGLWAGVDGRSS	0.6855 ± 0.0021
SGMGAIADENKE	0.635 ± 0.051
SGNDIQSLNIVI	0.754 ± 0.081
SGPSWSGGGWGR	0.648 ± 0.021
SGRSRVAGVERR	0.708 ± 0.062
SGSITAGLVRNV	0.6152 ± 0.0051
SGSSRLRTSPTG	0.814 ± 0.056
SGTGRINWEGFL	0.709 ± 0.03
SGVLRLSGTGAV	0.688 ± 0.0018
SGVSCPGRVDGG	0.68 ± 0.0085
SGVSRSGREFRN	0.634 ± 0.088
SGWRGVVGRGGR	0.625 ± 0.027
SHDLASRQSAFR	0.648 ± 0.059
SHFHSRDARRSP	0.673 ± 0.0068
SHKPDLTNVRFV	0.707 ± 0.044
SHLAHLHPHIAR	0.675 ± 0.026
SHLGTITPSSLL	0.662 ± 0.082
SHPWLLDCVTTF	0.706 ± 0.044

Sequence	protein stability index
SHRSALLPFLPP	0.646 ± 0.046
SHSPAPSFPYFP	0.7367 ± 0.0026
SHSRRRTPSVTP	0.713 ± 0.083
SHTRPRPPLHLP	0.68 ± 0.038
SIDKINKLTPDV	0.648 ± 0.052
SIIATHNNNSIW	0.694 ± 0.014
SILRRFSPPPLL	0.75 ± 0.051
SISLVLPASCIT	0.693 ± 0.021
SISQSSSLGLED	0.677 ± 0.046
SISSFLPRRLPF	0.662 ± 0.033
SIVRWLTSSLIH	0.787 ± 0.17
SIVSTPGATACL	0.67281 ± 0.00029
SIYLLQRRQFDP	0.677 ± 0.048
SKGSVFGNMGYR	0.6741 ± 0.0063
SKIQDHLNTAPE	0.654 ± 0.058
SKKLSMNIIITN	0.653 ± 0.0047
SKKRHSKNRKSV	0.71 ± 0.032
SKNEIKNYNTKI	0.642 ± 0.031
SKNQEDEYTIHE	0.7 ± 0.024
SKNQQKKCQMIT	0.534 ± 0.038
SKRIKIEFYVNQ	0.688 ± 0.12
SKSLRAAQGGRT	0.684 ± 0.016
SKYVVQSENITG	0.699 ± 0.015
SLALPLLPPSSP	0.739 ± 0.05
SLALSPQFLSFP	0.749 ± 0.081
SLAPSARLYPYH	0.768 ± 0.03

Sequence	protein stability index
SLARGFVVPMWP	0.707 ± 0.045
SLCPVTPPSVGF	0.656 ± 0.02
SLDFRSARFSLG	0.65 ± 0.014
SLDQGRLRRLVG	0.641 ± 0.061
SLEALARDRFCT	0.724 ± 0.014
SLESRGLRSRHY	0.633 ± 0.073
SLFLLFRSRACS	0.539 ± 0.011
SLFMRLPLQSSF	0.65 ± 0.041
SLGFMALFYLPL	0.649 ± 0.016
SLGWVRDRICSD	0.75 ± 0.17
SLISRAFYSFSP	0.699 ± 0.04
SLLFPPSPPPPA	0.673 ± 0.011
SLLLFPCPWFGL	0.677 ± 0.019
SLLLPPRPPPRV	0.744 ± 0.055
SLLPPSPPPSRL	0.724 ± 0.066
SLLPSSFRAPAP	0.652 ± 0.045
SLLQSLPSPPPP	0.639 ± 0.011
SLNQWTGTTLRQ	0.66 ± 0.02
SLPAFLPAPPLF	0.6962 ± 0.002
SLPAPPPPPPPH	0.727 ± 0.034
SLPDTSPSLHPP	0.59 ± 0.011
SLPPLASPPASI	0.72 ± 0.1
SLPPPLPRRPPP	0.729 ± 0.13
SLPPRPCPSHLH	0.786 ± 0.081
SLPRWLPPPLQS	0.687 ± 0.0095
SLPSLLFLISLP	0.543 ± 0.054

Sequence	protein stability index
SLPSRPLSFYSP	0.715 ± 0.068
SLPWVLLPTGPY	0.751 ± 0.075
SLQTHCHKGPLS	0.718 ± 0.0099
SLRLMTFPPLLL	0.68 ± 0.08
SLRPPLRPPTVV	0.601 ± 0.017
SLSAPPPRSTSP	0.597 ± 0.021
SLSFSLPLFSLG	0.681 ± 0.013
SLSPARKDSSLP	0.683 ± 0.15
SLSPPSPTPSHS	0.7347 ± 0.0043
SLSSAALFHGPF	0.598 ± 0.065
SLSSPILYLFAS	0.65 ± 0.013
SLTCRKQTVRVI	0.53 ± 0.012
SLVSYSPPLPPP	0.681 ± 0.034
SLWGFWRVVGRR	0.594 ± 0.052
SLYRSAARHLGI	0.754 ± 0.037
SMFGSVGLMPCG	0.656 ± 0.02
SMLLFFLPSSSS	0.641 ± 0.046
SMLVPLPPFSSA	0.694 ± 0.0097
SMRLELAALLVI	0.546 ± 0.033
SMVLRTIKKRNI	0.661 ± 0.015
SNKKRTRNEGKD	0.6109 ± 0.0047
SNNKSIRKGVSI	0.79002 ± 6.2e-05
SNQKGQIYYEPS	0.706 ± 0.08
SNQRQRETKREE	0.677 ± 0.039
SNRSVININIRI	0.616 ± 0.058
SPACFKIFCRCF	0.523 ± 0.046

Sequence	protein stability index
SPAFSLIPCPLF	0.742 ± 0.059
SPATDRTSLFES	0.729 ± 0.022
SPCPPPPAHPPR	0.728 ± 0.026
SPDLTRPPLPPP	0.693 ± 0.015
SPFPFLLTAPLA	0.538 ± 0.0094
SPGPPLLLPPPL	0.688 ± 0.085
SPGRSSTLPPVF	0.7101 ± 0.00072
SPGRVSRGNASV	0.645 ± 0.017
SPGSSIFLYFFT	0.729 ± 0.022
SPHTPDPTTTPH	0.648 ± 0.097
SPLETLLCTPSI	0.675 ± 0.019
SPLPPPPHPSPF	0.505 ± 0.017
SPLRPPSLPAPG	0.653 ± 0.015
SPLRSCPADPSQ	0.763 ± 0.082
SPLSLPSIPFGV	0.672 ± 0.075
SPLTYTAPRCPR	0.82 ± 0.088
SPLVSSPPPALL	0.643 ± 0.081
SPPALPRPPRRP	0.708 ± 0.044
SPPHPRPPTLRT	0.609 ± 0.013
SPPLSLPFFPRP	0.641 ± 0.019
SPPPAPVPAPPR	0.678 ± 0.048
SPPPPRPPSQPS	0.674 ± 0.021
SPPPPTPPLSPP	0.669 ± 0.0051
SPPPSSTSTSTS	0.688 ± 0.061
SPPPTSHPSAPP	0.638 ± 0.056
SPPSPFAFPLPP	0.67473 ± 0.00064

Sequence	protein stability index
SPPSPPSPPPLV	0.745 ± 0.013
SPPSPYPPPLDR	0.695 ± 0.021
SPPSSFPVFTLL	0.728 ± 0.05
SPPTPRIPPPLP	0.663 ± 0.035
SPPTSPAPLPPP	0.6502 ± 0.0032
SPPTTHPPSSHG	0.7486 ± 0.0062
SPPWGQGSVSSK	0.729 ± 0.052
SPQPPHSPLSAR	0.653 ± 0.024
SPRFLLNCWGRL	0.821 ± 0.027
SPRGRGARRGRI	0.705 ± 0.028
SPRLHFPPRHPC	0.717 ± 0.015
SPRLLPSPTRVA	0.643 ± 0.059
SPRLSGVPGHAP	0.663 ± 0.027
SPRPTRPALLPP	0.708 ± 0.033
SPRRWVSGHPRG	0.711 ± 0.042
SPRSPACPTPDR	0.734 ± 0.011
SPRSPPSPPPRP	0.746 ± 0.045
SPRSPPSTSSPQ	0.6802 ± 0.001
SPSGCVGSSAQS	0.68061 ± 0.00045
SPSLAPSPSALL	0.598 ± 0.018
SPSLPPLSPPNP	0.699 ± 0.039
SPSPLSHSPLAF	0.647 ± 0.009
SPSPPLAPPSPS	0.671 ± 0.0073
SPSPPSLLPAPS	0.74 ± 0.062
SPSQRPLPSISP	0.718 ± 0.01
SPSSLPPVPPSP	0.6764 ± 0.0036

Sequence	protein stability index
SPSSPPPSPPPA	0.727 ± 0.016
SPSTSIPPLPAS	0.73 ± 0.016
SPTARRLSGCIS	0.658 ± 0.086
SPTIRPDESPVQ	0.6893 ± 0.0067
SPTPHPPPSPPL	0.728 ± 0.023
SPTPSLPFPALF	0.737 ± 0.097
SPTRPPSPIISR	0.7181 ± 0.002
SPVLSPHSRSSF	0.633 ± 0.087
SPVLSPLSLPPH	0.6982 ± 0.0042
SPVPIPPSPSRP	0.687 ± 0.019
SPVRPPLSSLYS	0.705 ± 0.04
SPVSLPIPYTFL	0.6891 ± 0.0054
SQAALLIPLFSL	0.681 ± 0.03
SQFWGCALFIEH	0.652 ± 0.018
SQGLALFLRPGY	0.628 ± 0.057
SQSFFDGVLVRV	0.673 ± 0.059
SRAAGILCVVQI	0.615 ± 0.084
SRAPPTSLVWGF	0.678 ± 0.097
SRDIKTDCLRRV	0.688 ± 0.078
SREKRKEEQTQK	0.717 ± 0.018
SRFGSVSCRPSI	0.713 ± 0.079
SRFPPDTFFSFL	0.802 ± 0.14
SRGARRRGGAGR	0.656 ± 0.056
SRGPSLYLCGVR	0.63 ± 0.00074
SRIALLSLGAIL	0.707 ± 0.028
SRIPARCDGKCI	0.6722 ± 0.0037

Sequence	protein stability index
SRKEKNEKRSWG	0.674 ± 0.041
SRLGLLTDGVYA	0.583 ± 0.025
SRLLLPPRGILP	0.76 ± 0.15
SRLPSYVSACSF	0.671 ± 0.011
SRLRPHNSSTPV	0.716 ± 0.053
SRNLRRLEIRRE	0.743 ± 0.027
SRPFAILLCAEK	0.62 ± 0.015
SRPLANYARCSS	0.639 ± 0.036
SRPSPAMFLFSP	0.737 ± 0.1
SRRCKAFLCRGY	0.6663 ± 0.0053
SRRSNMRNMRTT	0.657 ± 0.081
SRRYLPHRPTSL	0.732 ± 0.071
SRTAFNRGTTRD	0.681 ± 0.044
SRVRSPPWTRKF	0.739 ± 0.1
SRWTFSFYRNLD	0.683 ± 0.053
SSAALSPPPPRP	0.724 ± 0.027
SSCTRLSILVWF	0.52 ± 0.0056
SSDFVFGHRFCR	0.693 ± 0.015
SSEKKKEDGGLG	0.687 ± 0.069
SSFPAGGWLFFL	0.682 ± 0.029
